From publication PMC2801713 (Molecular Biology of the Cell, 2010)

Target: GFP-WIP (wild type) (human, UniProt O43516 1-503)
Test: far-Western, overlay or dot blot

Sequence of GFP-WIP (wild type) (O43516 whole entry): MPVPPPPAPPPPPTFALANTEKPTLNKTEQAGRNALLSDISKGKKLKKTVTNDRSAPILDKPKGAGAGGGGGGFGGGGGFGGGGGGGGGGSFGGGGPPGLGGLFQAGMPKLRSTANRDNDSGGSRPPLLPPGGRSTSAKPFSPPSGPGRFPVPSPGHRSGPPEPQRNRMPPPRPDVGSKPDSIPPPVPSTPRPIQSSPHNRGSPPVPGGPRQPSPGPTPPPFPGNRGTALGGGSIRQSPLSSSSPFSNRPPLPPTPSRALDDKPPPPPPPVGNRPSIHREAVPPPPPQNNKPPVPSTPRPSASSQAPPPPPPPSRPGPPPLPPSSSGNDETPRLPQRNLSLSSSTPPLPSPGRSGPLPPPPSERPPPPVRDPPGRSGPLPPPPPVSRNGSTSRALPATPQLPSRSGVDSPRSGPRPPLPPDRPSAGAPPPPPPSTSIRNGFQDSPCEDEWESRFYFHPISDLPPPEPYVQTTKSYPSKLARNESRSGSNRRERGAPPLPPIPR

B1: His-mAbp1-GST (natural protein, mouse, UniProt Q62418 1-436, looked up)
chain: MAVNLSRNGPALQEAYVRVVTEKSPTDWALFTYEGNSNDIRVAGTGEGGLEELVEELNSGKVMYAFCRVKDPNSGLPKFVLINWTGEGVNDVRKGACANHVSTMANFLKGAHVTINARAEEDVEPECIMEKVAKASGANYSFHKESTSFQDVGPQAPVGSVYQKTNAISEIKRVGKDNFWAKAEKEEENRRLEEKRRAEEERQRLEEERRERELQEAARREQRYQEQHRSAGAPSPSSRTGEPEQEAVSRTRQEWESAGQQAPHPREIFKQKERAMSTTSVTSSQPGKLRSPFLQKQLTQPETSYGREPTAPVSRPAAGVCEEPAPSTLSSAQTEEEPTYEVPPEQDTLYEEPPLVQQQGAGSEHIDNYMQSQGFSGQGLCARALYDYQAADDTEISFDPENLITGIEVIDEGWWRGYGPDGHFGMFPANYVELIE
B1: binds.
